# According to article PMC5072837:
# “And” between values parts separate entries of the source, which are not always exact repeats. Identical values can stand only once.
# How the values were obtained:
# [1] = molecular target: FliD_(1–474(I167C/D253C)) produced by Pseudomonas (complementation strain ΔfliD/fliD_(1–474(I167C/D253C))) (Pseudomonas aeruginosa PAO1) (UniProt Q9K3C5); test: Western blot after non-reducing SDS-PAGE; flagella sheared off live bacteria, supernatant concentrated; detected with anti-FliD scFv-Fc SH1579-B7
# [2] = molecular target: head domain-only FliD (FliD_(78–273)) from the P. aeruginosa PAO1 strain (Pseudomonas aeruginosa PAO1) (UniProt Q9K3C5); test: cross-linking; about 0.4 mg/mL protein, 20 mM EDC and 20 mM NHS, various time points; silver-stained SDS-PAGE
# [3] = molecular target: head domain-only FliD (FliD_(78–273)) from the P. aeruginosa PAO1 strain (Pseudomonas aeruginosa PAO1) (UniProt Q9K3C5); test: SAXS; 30 mM Tris pH 8.0, 80 mM NaCl; three concentrations of each protein; envelopes by DAMMIF with superimposed crystal structures
# [4] = molecular target: head domain-only FliD (FliD_(78–273)) from the P. aeruginosa PAO1 strain (Pseudomonas aeruginosa PAO1) (UniProt Q9K3C5); test: AUC; sedimentation velocity, 20°C, 20 mM sodium citrate, 80 mM NaCl, pH 5.0; 325 μM FliD78–405, 124 μM FliD78–273, 168 μM FliD1–474
# [5] = molecular target: FliD_(78–405) from the P. aeruginosa PAO1 strain, with N-terminal His6-tag (crystallized construct) (Pseudomonas aeruginosa PAO1) (UniProt Q9K3C5); test: crystal structure; His6-FliD78–405 crystals grown in 0.8 M NaK Tartrate, 0.1 M Hepes pH 7.5; 2.2 Å; P6 space group
# [6] = molecular target: stable hexameric full-length FliD mutant FliD_(1–474(I167C/D253C)), purified recombinant protein (Pseudomonas aeruginosa PAO1) (UniProt Q9K3C5); test: SDS-PAGE under non-reducing conditions; purified FliD1–474(I167C/D253C), reducing against non-reducing conditions
# [7] = molecular target: stable hexameric full-length FliD mutant FliD_(1–474(I167C/D253C)), purified recombinant protein (Pseudomonas aeruginosa PAO1) (UniProt Q9K3C5); test: SAXS; 30 mM Tris pH 8.0, 80 mM NaCl; three concentrations of each protein; envelopes by DAMMIF with superimposed crystal structures
# [8] = molecular target: FliD lacking the C-terminal coiled-coil domain (FliD_(1–405)) from the P. aeruginosa PAO1 strain (Pseudomonas aeruginosa PAO1) (UniProt Q9K3C5); test: cross-linking; about 0.4 mg/mL protein, 20 mM EDC and 20 mM NHS, various time points; silver-stained SDS-PAGE
# [9] = molecular target: full-length FliD_(1–474) from the P. aeruginosa PAO1 strain (Pseudomonas aeruginosa PAO1) (UniProt Q9K3C5); test: AUC; sedimentation velocity, 4 μM FliD1–474 in 30 mM Tris, 80 mM NaCl, pH 8.0
# [10] = molecular target: full-length FliD_(1–474) from the P. aeruginosa PAO1 strain (Pseudomonas aeruginosa PAO1) (UniProt Q9K3C5); test: cross-linking; about 0.4 mg/mL protein, 20 mM EDC and 20 mM NHS, various time points; silver-stained SDS-PAGE
# [11] = molecular target: full-length FliD_(1–474) from the P. aeruginosa PAO1 strain (Pseudomonas aeruginosa PAO1) (UniProt Q9K3C5); test: AUC; sedimentation velocity, 20°C, 30 mM Tris, 80 mM NaCl, pH 8.0; 295 μM FliD78–405, 124 μM FliD78–273, 168 μM FliD1–474
# [12] = molecular target: full-length FliD_(1–474) from the P. aeruginosa PAO1 strain (Pseudomonas aeruginosa PAO1) (UniProt Q9K3C5); test: AUC; sedimentation velocity, 20°C, 20 mM sodium citrate, 80 mM NaCl, pH 5.0; 325 μM FliD78–405, 124 μM FliD78–273, 168 μM FliD1–474
# [13] = molecular target: FliD lacking the N-terminal coiled-coil domain (FliD_(78–474)) from the P. aeruginosa PAO1 strain (Pseudomonas aeruginosa PAO1) (UniProt Q9K3C5); test: cross-linking; about 0.4 mg/mL protein, 20 mM EDC and 20 mM NHS, various time points; silver-stained SDS-PAGE
# [14] = molecular target: FliD_(78–405) from the P. aeruginosa PAO1 strain, made as a GST fusion and cleaved (Pseudomonas aeruginosa PAO1) (UniProt Q9K3C5); test: negative stain EM with class averaging; 2% uranyl acetate, about 3500 particles, class averages in EMAN2
# [15] = molecular target: FliD_(78–405) from the P. aeruginosa PAO1 strain, made as a GST fusion and cleaved (Pseudomonas aeruginosa PAO1) (UniProt Q9K3C5); test: cross-linking; about 0.4 mg/mL protein, 20 mM EDC and 20 mM NHS, various time points; silver-stained SDS-PAGE
# [16] = molecular target: FliD_(78–405) from the P. aeruginosa PAO1 strain, made as a GST fusion and cleaved (Pseudomonas aeruginosa PAO1) (UniProt Q9K3C5); test: AUC; sedimentation velocity, 20°C, 30 mM Tris, 80 mM NaCl, pH 8.0; 295 μM FliD78–405, 124 μM FliD78–273, 168 μM FliD1–474
# [17] = molecular target: FliD_(78–405) from the P. aeruginosa PAO1 strain, made as a GST fusion and cleaved (Pseudomonas aeruginosa PAO1) (UniProt Q9K3C5); test: SAXS; 30 mM Tris pH 8.0, 80 mM NaCl; three concentrations of each protein; envelopes by DAMMIF with superimposed crystal structures
# [18] = molecular target: FliD_(78–405) from the P. aeruginosa PAO1 strain, made as a GST fusion and cleaved (Pseudomonas aeruginosa PAO1) (UniProt Q9K3C5); test: AUC; sedimentation velocity, 20°C, 20 mM sodium citrate, 80 mM NaCl, pH 5.0; 325 μM FliD78–405, 124 μM FliD78–273, 168 μM FliD1–474
substance,measurement,setting,value
FliD_(1–474(I167C/D253C)) produced by Pseudomonas (complementation strain ΔfliD/fliD_(1–474(I167C/D253C))) (from UniProt Q9K3C5 1-474) (natural protein),stoichiometry N,[1],6
head domain-only FliD (FliD_(78–273)) from the P. aeruginosa PAO1 strain (from UniProt Q9K3C5 78-273) (domain or fragment),stoichiometry N,[2],2
same,stoichiometry N,[3],2
same,stoichiometry N,[4],2
"FliD_(78–405) from the P. aeruginosa PAO1 strain, with N-terminal His6-tag (crystallized construct) (from UniProt Q9K3C5 78-405) (domain or fragment)",stoichiometry N,[5],6 and 12
"stable hexameric full-length FliD mutant FliD_(1–474(I167C/D253C)), purified recombinant protein (from UniProt Q9K3C5 1-474) (natural protein)",stoichiometry N,[6],6
same,stoichiometry N,[7],6
FliD lacking the C-terminal coiled-coil domain (FliD_(1–405)) from the P. aeruginosa PAO1 strain (from UniProt Q9K3C5 1-405) (domain or fragment),stoichiometry N,[8],2
full-length FliD_(1–474) from the P. aeruginosa PAO1 strain (from UniProt Q9K3C5 1-474) (natural protein),stoichiometry N,[9],2
same,stoichiometry N,[10],< 6
same,stoichiometry N,[11],4 and 6
same,stoichiometry N,[12],4 and 6
FliD lacking the N-terminal coiled-coil domain (FliD_(78–474)) from the P. aeruginosa PAO1 strain (from UniProt Q9K3C5 78-474) (domain or fragment),stoichiometry N,[13],2
"FliD_(78–405) from the P. aeruginosa PAO1 strain, made as a GST fusion and cleaved (from UniProt Q9K3C5 78-405) (domain or fragment)",stoichiometry N,[14],6
same,stoichiometry N,[15],< 12
same,stoichiometry N,[16],12
same,stoichiometry N,[17],12
same,stoichiometry N,[18],12
